Data from patent US20170029530A1 (AbbVie / Abbott, published 2017).
Numbering of substitutions follows the chain as printed. “And” between values parts separate entries of the source, which are not always exact repeats. Equal values may be shown once.

T1: hDPEP3-ECD-His (human, UniProt Q9H4B8 36-463)
T1 construct: also called hDPEP3-His; monomeric hDPEP3-His antigen; not shown: histidine tag
T1 sequence: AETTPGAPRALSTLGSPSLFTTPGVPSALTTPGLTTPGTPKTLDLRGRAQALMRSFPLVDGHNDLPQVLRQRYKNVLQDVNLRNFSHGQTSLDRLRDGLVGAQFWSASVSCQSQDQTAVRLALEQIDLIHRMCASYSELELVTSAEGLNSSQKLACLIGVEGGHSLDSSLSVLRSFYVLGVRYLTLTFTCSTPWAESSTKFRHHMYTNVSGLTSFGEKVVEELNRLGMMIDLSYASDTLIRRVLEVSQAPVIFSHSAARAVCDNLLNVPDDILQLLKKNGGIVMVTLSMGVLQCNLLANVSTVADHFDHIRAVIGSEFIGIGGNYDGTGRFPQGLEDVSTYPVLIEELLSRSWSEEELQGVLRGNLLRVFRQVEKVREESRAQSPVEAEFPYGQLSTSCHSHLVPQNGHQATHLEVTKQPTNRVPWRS

T2: mDPEP3 (limits assumed)
T2 construct: also called mouse DPEP3-His; mouse DPEP3 ECD with histidine tag
T2 single chain: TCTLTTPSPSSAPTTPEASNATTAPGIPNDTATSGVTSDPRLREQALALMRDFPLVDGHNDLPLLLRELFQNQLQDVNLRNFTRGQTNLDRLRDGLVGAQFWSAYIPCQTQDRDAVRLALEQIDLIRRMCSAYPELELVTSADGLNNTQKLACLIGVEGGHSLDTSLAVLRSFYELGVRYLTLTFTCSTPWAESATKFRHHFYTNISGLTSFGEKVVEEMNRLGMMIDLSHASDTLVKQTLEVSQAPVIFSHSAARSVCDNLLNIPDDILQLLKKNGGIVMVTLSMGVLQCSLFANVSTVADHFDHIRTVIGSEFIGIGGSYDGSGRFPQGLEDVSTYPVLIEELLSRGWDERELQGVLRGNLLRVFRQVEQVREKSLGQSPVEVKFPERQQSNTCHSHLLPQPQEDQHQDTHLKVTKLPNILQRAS

T3: cDPEP3 (Macaca fascicularis, UniProt Q4R7M2)
T3 construct: extracellular domain; also called cynomolgus DPEP3-His; cynomolgus DPEP3 ECD with histidine tag
T3 sequence (single chain, looked up): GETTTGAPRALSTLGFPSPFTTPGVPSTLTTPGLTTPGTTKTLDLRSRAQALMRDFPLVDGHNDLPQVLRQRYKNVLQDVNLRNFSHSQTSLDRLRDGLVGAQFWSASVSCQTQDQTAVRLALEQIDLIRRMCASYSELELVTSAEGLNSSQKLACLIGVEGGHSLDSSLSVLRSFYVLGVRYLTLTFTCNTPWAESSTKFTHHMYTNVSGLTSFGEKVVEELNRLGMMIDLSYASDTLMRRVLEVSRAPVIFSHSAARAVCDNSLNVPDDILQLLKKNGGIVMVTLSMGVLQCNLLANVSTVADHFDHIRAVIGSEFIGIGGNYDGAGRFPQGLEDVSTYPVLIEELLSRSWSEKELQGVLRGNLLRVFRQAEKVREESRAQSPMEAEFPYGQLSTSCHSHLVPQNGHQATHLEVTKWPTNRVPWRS

T4: rat DPEP3 ECD with histidine tag (rat, UniProt Q5U2X4 36-459, limits assumed)
T4 construct: also called rDPEP3-His; ratDPEP3-His; not shown: histidine tag
T4 sequence: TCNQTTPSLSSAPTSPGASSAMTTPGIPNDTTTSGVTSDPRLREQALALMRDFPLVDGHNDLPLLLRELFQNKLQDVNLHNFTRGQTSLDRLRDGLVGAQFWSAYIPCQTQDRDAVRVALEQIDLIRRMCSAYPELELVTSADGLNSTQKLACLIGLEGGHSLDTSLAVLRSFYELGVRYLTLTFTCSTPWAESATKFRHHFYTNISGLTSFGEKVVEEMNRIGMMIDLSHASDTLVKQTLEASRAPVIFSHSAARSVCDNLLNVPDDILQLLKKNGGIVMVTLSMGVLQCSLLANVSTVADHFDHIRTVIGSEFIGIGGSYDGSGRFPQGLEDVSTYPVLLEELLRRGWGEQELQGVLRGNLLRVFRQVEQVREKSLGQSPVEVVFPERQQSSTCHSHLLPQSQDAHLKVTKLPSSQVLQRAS

B1: SC34.40 (antibody, mouse IgG2a, V domains shown)
VH: EVQLQESGPGLAKPSQTLSLTCSVTGYSITSDYWNWIRKFPGNKLEYMGYITYSGSTYYNPSLKSRISITRDTSKNQYYLQLNSVTTEDTATYYCARARVYYYDGRYGRAMDYWGQGTSVTVSS
VL: DIQMTQSPASLSASVGETVTMTCRASENIYSNLAWYQQKQGKSPQVLVYAATNLADGVPSRFSGSESGTQFSLKINSLQPEDFGSYYCQHFYGTPWTFGGGTKLEIK
B2: SC34.41 (antibody, mouse IgG1, V domains shown)
VH: EVKLVESGGGLVKPGGSLKLSCAASGFTFTSYTMSWVRQTPAKRLEWVATISTGGGNTYYPDIVKGRFTISRDNARSTLYLQMSSLRSEDSAMYYCARRFYDGSYNYWYFDVWGAGTTVTVSS
VL: DIQMIQSPSSMFASLGDRVSLSCRASQGIRGNLDWYQQKPGGTIKLLIYSTSNLNSGVPSRFSGSGSGSDYSLTISSLESEDFADYYCLQRDAYPYTFGGGTKLEIK
B3: SC34.50 (antibody, mouse IgG2b, V domains shown)
VH: QVQLQQPGAELVRPGASVKLSCKASGYTFTSYWINWVKQRPGQGLEWIGNIFPSDSYTNYNQKFRDKATLTVDKSSSTAYMQLSSPTSEDSAVYYCTIRTYGNYFDYWGQGTTLTVSS
VL: DIQMTQSSSSFSVSLGDRVTITCKASEDIYNRLAWYQQKPGNAPRLLISGATSLETGVPSRFSGSGSGKDYTLSITSLQTEDVATYYCQQYWSTIFTFGSGTKLEIK
B4: SC34.28 mouse anti-DPEP3 antibody (antibody, V domains shown)
VH: QVQLQQSGAELMKPGASVKISCKATGYTFSSYWIEWVKQRPGHGLEWIGEILPGSGNTYYNERFKDKATFTADTSSNTAYMQLSSLTSEDSAVYYCARRAAAYYSNPEWFAYWGQGTLVTVSA
VL: QIVLTQSPAIMSASLGERVTMTCTASSSVNSFYLHWYQQKPGSSPKLWIHSTSNLASGVPGRFSGSGSGTSYSLTISSMEAEDAATYYCHQYHRSPYTFGGGTKLEIK
notes: Mouse hybridoma antibody, the source of hSC34.28
B5: SC34.33 (antibody, mouse IgG1, V domains shown)
VH: B4 VH with G56D, N57K, A97T
VL: B4 VL
B6: SC34.49 (antibody, mouse IgG1, V domains shown)
VH: EVQLQQSGPELVKPGSSVKISCKASGYTFTDYHMNWVKQSHGKSLEWIGNINPYYGVSTYNQNLKGTATLTVDKSSSTAYMELRGLTSEDSAVYYCVRRAMDSPRFAYWGQGTLVTVSA
VL: DIQMTQSSSYLSVSLGGRVTITCKASEHINNWLAWYQQKPGNPPRLLISGATSLETGVPSRFSGSGSGKDYTLSITGLQTEDIATYFCQQYRSTPFTFGSGTKLEIK

target: T1, hDPEP3-ECD-His; test: BLI ForteBio RED, 200 nM hDPEP3-His, estimated grade
In short: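 Antibodies were captured on anti-mouse Fc biosensors to 0.3-1 units, then exposed to hDPEP3-His for a 4 min association and a 3 min dissociation at 1000 rpm. A control mouse IgG response was subtracted, and KD was estimated qualitatively from the curves. Sensors were regenerated with 10 mM glycine, pH 1.7.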

Question: With B1 as the binder, how does the Kd read?
Answer: ≥ 5 nM and ≤ 10 nM

Question: B2 was tested. Which Kd did it give?
Answer: > 10 nM

Question: B3 was tested. Which Kd did it give?
Answer: > 10 nM

Question: B4 was tested. Which Kd did it give?
Answer: ≥ 5 nM and ≤ 10 nM

Question: How did the Kd turn out when B5 was run?
Answer: ≥ 5 nM and ≤ 10 nM

Question: Which Kd does the source give for B6 here?
Answer: > 10 nM

Target: T2, mDPEP3
Test: ELISA, coated antigen

Question: Does B1 bind?
Answer: no binding (tested: 1 ug/mL)

Question: Does B2 bind?
Answer: no binding (tested: 1 ug/mL)

Question: Does B3 bind?
Answer: no binding (tested: 1 ug/mL)

Question: Does B4 bind?
Answer: no binding (tested: 1 ug/mL)

Question: Does B5 bind?
Answer: no binding (tested: 1 ug/mL)

Question: Does B6 bind?
Answer: no binding (tested: 1 ug/mL)

target: T3, cDPEP3; test: ELISA, coated antigen

Question: Does B1 bind?
Answer: no binding (tested: 1 ug/mL)

Question: Does B2 bind?
Answer: no binding (tested: 1 ug/mL)

Question: Does B3 bind?
Answer: no binding (tested: 1 ug/mL)

Question: Does B4 bind?
Answer: no binding (tested: 1 ug/mL)

Question: Does B5 bind?
Answer: no binding (tested: 1 ug/mL)

Question: Does B6 bind?
Answer: no binding (tested: 1 ug/mL)

target: T4, rat DPEP3 ECD with histidine tag; test: ELISA, coated antigen

Question: Does B1 bind?
Answer: no binding (tested: 1 ug/mL)

Question: Does B2 bind?
Answer: no binding (tested: 1 ug/mL)

Question: Does B3 bind?
Answer: no binding (tested: 1 ug/mL)

Question: Does B4 bind?
Answer: no binding (tested: 1 ug/mL)

Question: Does B5 bind?
Answer: no binding (tested: 1 ug/mL)

Question: Does B6 bind?
Answer: no binding (tested: 1 ug/mL)

target: T5, hDPEP2 ECD with histidine tag (human, UniProt Q9H4A9 33-463); test: ELISA, coated antigen
T5 construct: also called hDPEP2-His; not shown: histidine tag
T5 sequence (Q9H4A9 33-463): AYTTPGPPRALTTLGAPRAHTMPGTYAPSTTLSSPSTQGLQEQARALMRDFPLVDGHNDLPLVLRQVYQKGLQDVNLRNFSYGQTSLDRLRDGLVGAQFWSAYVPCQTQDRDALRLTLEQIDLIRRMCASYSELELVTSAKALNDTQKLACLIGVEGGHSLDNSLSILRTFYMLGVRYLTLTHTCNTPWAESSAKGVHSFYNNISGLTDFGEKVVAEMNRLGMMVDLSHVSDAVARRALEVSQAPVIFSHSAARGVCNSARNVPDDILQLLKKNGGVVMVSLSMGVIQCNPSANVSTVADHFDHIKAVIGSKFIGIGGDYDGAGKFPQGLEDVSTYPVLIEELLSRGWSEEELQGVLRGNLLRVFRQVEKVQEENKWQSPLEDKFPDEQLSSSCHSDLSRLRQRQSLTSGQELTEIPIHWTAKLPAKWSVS

Question: Does B1 bind?
Answer: no binding (tested: 1 ug/mL)

Question: Does B2 bind?
Answer: no binding (tested: 1 ug/mL)

Question: Does B3 bind?
Answer: no binding (tested: 1 ug/mL)

Question: Does B4 bind?
Answer: no binding (tested: 1 ug/mL)

Question: Does B5 bind?
Answer: no binding (tested: 1 ug/mL)

Question: Does B6 bind?
Answer: no binding (tested: 1 ug/mL)
